Experiment [1] addresses T1, αvβ3 expressed on placenta (placental trophoblasts) (Rattus norvegicus, UniProt Q8R2H2).
T1 construct: from tissue; host or cells: placenta (frozen sections)
T1 sequence (Q8R2H2 26-787): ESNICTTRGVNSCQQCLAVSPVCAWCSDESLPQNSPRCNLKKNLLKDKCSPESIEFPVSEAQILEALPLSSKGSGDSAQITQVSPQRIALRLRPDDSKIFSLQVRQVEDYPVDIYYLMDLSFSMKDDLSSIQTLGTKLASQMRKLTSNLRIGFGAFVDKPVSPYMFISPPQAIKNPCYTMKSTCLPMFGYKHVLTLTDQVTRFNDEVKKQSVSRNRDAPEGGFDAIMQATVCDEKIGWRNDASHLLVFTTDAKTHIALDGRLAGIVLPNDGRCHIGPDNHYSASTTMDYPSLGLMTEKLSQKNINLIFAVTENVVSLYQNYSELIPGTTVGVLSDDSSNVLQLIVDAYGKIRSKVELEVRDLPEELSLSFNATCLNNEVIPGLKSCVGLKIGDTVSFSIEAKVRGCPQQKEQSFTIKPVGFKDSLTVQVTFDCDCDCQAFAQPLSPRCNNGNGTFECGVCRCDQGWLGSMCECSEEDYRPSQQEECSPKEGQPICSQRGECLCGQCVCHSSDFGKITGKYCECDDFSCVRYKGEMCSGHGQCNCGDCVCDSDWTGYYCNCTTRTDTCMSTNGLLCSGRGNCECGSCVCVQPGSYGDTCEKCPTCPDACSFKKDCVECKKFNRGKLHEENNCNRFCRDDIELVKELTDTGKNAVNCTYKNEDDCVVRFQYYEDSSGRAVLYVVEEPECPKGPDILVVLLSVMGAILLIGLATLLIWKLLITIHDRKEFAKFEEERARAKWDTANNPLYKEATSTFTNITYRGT
As to the kind of experiment: Immunohistochemical staining of placental trophoblasts. The experiment is classed as binding. To be noted: frozen thin sections, antibody 10 μg/ml. On the procedure: (§1) Table 3. Immunohistochemical staining of placental trophoblasts. Placental tissue, a rich source of αvβ3, was collected either immediately after parturition or from freshly-sacrificed, late-term pregnant animals. Tissue fragments, approximately 1 cm^3, were frozen in OCT, and thin sections were stained with monoclonal antibodies (10 μg/ml) at Sierra Biomedical (Sparks, Nev.). Vitaxin® recognized αvβ3 expressed on human, monkey, guinea pig, hamster and rabbit placenta, while […] with human and monkey αvβ3. […] ND, not done.

The target of experiment [2] is T2, αvβ3 expressed on placenta (placental trophoblasts) (Mus musculus, UniProt O54890).
T2 construct: from tissue; host or cells: placenta (frozen sections)
T2 sequence (O54890 26-787): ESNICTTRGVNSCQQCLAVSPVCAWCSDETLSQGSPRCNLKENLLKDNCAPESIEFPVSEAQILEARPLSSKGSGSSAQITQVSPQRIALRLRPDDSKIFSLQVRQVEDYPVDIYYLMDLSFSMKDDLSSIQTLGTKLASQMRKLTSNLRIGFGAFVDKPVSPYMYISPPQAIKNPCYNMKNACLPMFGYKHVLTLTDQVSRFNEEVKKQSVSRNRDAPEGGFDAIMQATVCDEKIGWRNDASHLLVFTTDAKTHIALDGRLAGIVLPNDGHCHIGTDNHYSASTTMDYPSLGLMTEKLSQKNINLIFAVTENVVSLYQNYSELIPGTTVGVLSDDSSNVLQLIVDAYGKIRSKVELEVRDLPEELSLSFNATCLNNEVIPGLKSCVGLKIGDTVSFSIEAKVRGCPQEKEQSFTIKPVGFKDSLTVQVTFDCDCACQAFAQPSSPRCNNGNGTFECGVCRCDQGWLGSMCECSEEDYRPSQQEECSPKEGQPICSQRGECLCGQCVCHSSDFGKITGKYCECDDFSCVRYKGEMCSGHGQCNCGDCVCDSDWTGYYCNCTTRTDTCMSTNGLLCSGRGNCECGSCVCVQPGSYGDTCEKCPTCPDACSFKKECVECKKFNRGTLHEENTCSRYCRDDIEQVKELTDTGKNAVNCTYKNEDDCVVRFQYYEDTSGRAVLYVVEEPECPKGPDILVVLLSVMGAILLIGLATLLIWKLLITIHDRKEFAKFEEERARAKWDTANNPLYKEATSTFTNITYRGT
T2 sequence (P43406 31-885 partner limits assumed): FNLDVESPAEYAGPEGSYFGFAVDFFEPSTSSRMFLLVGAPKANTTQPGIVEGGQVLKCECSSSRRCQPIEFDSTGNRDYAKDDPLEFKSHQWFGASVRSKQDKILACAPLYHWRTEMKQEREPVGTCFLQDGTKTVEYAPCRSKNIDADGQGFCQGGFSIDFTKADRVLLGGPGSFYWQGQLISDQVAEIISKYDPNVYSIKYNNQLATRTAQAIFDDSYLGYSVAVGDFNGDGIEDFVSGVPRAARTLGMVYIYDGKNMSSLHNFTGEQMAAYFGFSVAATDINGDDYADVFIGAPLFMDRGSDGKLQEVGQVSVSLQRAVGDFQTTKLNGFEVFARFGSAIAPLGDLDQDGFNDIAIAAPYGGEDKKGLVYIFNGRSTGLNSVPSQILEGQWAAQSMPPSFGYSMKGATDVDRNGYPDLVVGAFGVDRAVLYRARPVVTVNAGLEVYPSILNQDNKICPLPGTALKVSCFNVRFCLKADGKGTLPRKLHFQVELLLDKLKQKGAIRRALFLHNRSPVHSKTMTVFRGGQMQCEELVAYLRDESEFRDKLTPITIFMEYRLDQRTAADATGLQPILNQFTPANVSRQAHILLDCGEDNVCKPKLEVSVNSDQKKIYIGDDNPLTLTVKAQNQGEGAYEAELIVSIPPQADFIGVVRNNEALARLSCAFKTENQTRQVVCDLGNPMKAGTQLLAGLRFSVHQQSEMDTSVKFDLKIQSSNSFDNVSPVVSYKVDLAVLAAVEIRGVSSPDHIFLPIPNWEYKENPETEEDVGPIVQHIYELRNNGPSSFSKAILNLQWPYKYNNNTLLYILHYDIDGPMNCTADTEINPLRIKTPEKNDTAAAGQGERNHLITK
T2 sequence (P43406 887-1044 partner limits assumed): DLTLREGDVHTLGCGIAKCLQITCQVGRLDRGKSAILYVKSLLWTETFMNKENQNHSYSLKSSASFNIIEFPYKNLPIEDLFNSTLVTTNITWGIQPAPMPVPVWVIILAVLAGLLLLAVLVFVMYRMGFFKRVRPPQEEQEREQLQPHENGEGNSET
The experiment is described as above. The experiment is classed as binding. The following applies: frozen thin sections, antibody 10 μg/ml. On the procedure: as §1

B1: Vitaxin®: humanized blocking monoclonal antibody that binds Integrin αVβ3 (MEDI-522, MedImmune); humanized and optimized version of LM609 (antibody, chains of the INN, looked up, V domains shown)
VH: QVQLVESGGGVVQPGRSLRLSCAASGFTFSSYDMSWVRQAPGKGLEWVAKVSSGGGSTYYLDTVQGRFTISRDNSKNTLYLQMNSLRAEDTAVYYCARHLHGSFASWGQGTTVTVSS
VL: EIVLTQSPATLSLSPGERATLSCQASQSISNFLHWYQQRPGQAPRLLIRYRSQSISGIPARFSGSGSGTDFTLTISSLEPEDFAVYYCQQSGSWPLTFGGGTKVEIK
For the molecule B1, the “Staining of Placental Trophoblasts” value in experiment [1] and in experiment [2] was “Negative” each time.
